Laboratory results taken from article PMC2811071.

Biological target: T1, raver1 RRM1 (human (Homo sapiens), UniProt Q8IY67 59-130)
T1 sequence: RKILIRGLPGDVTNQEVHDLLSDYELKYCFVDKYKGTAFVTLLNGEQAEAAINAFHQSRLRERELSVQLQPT
Assay: ITC

UCAUGCAGUCUG (ssRNA) [vinculin mRNA 12-mer]
binding result: binds
